{"source": "the domain aggregation screens of Martell et al. (2025)"}
{"experiment": "soluble fraction after stress (log2 fold change); higher = more stays soluble; pooled small domains, quantitative proteomics", "conditions": "stress: pH 4", "outline": "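With high-throughput quantitative proteomics, pooled custom libraries of small protein domains were measured after pH 4 stress. Each domain's soluble amount after the stress gives a fold change taken as aggregation propensity. Higher log2 values mean more of the domain stayed soluble.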"}
{"sequence": "HMFDFLELGQAIQDAREKQRITREELAEELGISARHLQSVEKEGQYPSFRLFIQLVTMFHISVDQYI", "soluble fraction (log2)": -0.586}
{"sequence": "HMFDLATVKRVAEEAGMKFTIHPVELRAAHPNTAVLTLKSKAGRILVLKAASVGGGRIRVTEIDGVPAD", "soluble fraction (log2)": 0.219}
{"sequence": "HMFDLDIEQIANDLKHGVMPNLYGLSLQDALYLLEAKGIRVKVAGSGSVVNQSIKTGAYVGSGSVLKLEL", "soluble fraction (log2)": -0.833}
{"sequence": "HMFDLSQRQEQIIEIVRKHGPITGEKIADLLYVTRAALRPDLAILTMSGYLEAKPRVGYTYK", "soluble fraction (log2)": -0.0725}
{"sequence": "HMFDMLGDQIKKYRKEKKMSQEELAIPLNVVRQTVSKWENNLSVPDAELLIRLAEVLEISVAELLGT", "soluble fraction (log2)": -0.76}
{"sequence": "HMFDTVFIVRKTSDKPLDGLRTYLNSIGDSLVIGEDDEAFKVHVHTNHPGKVLEEAITYGALQTVKIENMR", "soluble fraction (log2)": -0.585}
{"sequence": "HMFDTVTIGRKIAELRKAHNMTQFELADALGISFQAVSNWERGASMPDISKLPELAEIFGVTIDEVLGK", "soluble fraction (log2)": -1.06}
{"sequence": "HMFEATGKITGTEVSFRRKPTTDSERILFFDINTEFRVIGINNGWYKGVYQGKTGYVRSDFVEIVGG", "soluble fraction (log2)": -0.448}
{"sequence": "HMFEEPYLATYPVLIDPKLAFNVLDTMLEGLEVKMDQDEETGAISVLAPASIHTKITEYLDALSKQ", "soluble fraction (log2)": -1.74}
{"sequence": "HMFEERKKDWNLTGLLDDVIRRYIHQLTNDELNEINLEKSSGMPDEEIKNGIKLPLAVMQQRRETWGS", "soluble fraction (log2)": -0.308}
{"sequence": "HMFEQRLRQAMKELRLKQVQVAGLTGKSRGAISQYLSGDRVPPDGVQREMAIALGLEADYFSR", "soluble fraction (log2)": 0.343}
{"sequence": "HMFERFIFTDEVYIRLKKSGLPQTTLRPLLEIHGKSFDHNEINIILSGLIPNQDFERYAQIIKSHSRF", "soluble fraction (log2)": -2.14}
{"sequence": "HMFEYDEIMEQSVPKIAWGSLLTIMKKASSHKEMLWYINETYKNGWSRSMVLNQIAMASYERSLIE", "soluble fraction (log2)": -0.918}
{"sequence": "HMFFDKIIVDFLADGSRIDKYISTLYPDISRTHIQRLIAEQFILVNDSVVKSNYKLSTNDVVLIHIPEA", "soluble fraction (log2)": -1.78}
{"sequence": "HMFFMTMGEKIQLLRKKQNWSQETLAEKLSVSRQAVSLWERDESQPELDKLLKLAKIFSVTTDYLIDDSVT", "soluble fraction (log2)": -0.0472}
{"sequence": "HMFGGIEFGWSQLPDGRVEYIIQLDDQAIAALKNGRSLTSSLPPEVQNADRIRIQYGAGPVEKGLLLQ", "soluble fraction (log2)": -0.0928}
{"sequence": "HMFIEMDEPEKILHRILNEANGKLELDKIGYRAEWPIGKVLTVLMSLELKGVVQSHPGKVYSL", "soluble fraction (log2)": -0.464}
{"sequence": "HMFIGFLHQLKEAGVPVSIREYLDFLSGLDKGITNLNTNSFYHFARASLVKDERHYDRFDRTFSEFFEGAL", "soluble fraction (log2)": -1.71}
{"sequence": "HMFIQLSQEEKKVVEGLQQRSKTHLDALALEVGQNISKTAAMLMELEMKGVVRALPGKYYEL", "soluble fraction (log2)": -0.239}
{"sequence": "HMFKEVPVPDVKGMTLEEAKLALEKEGFILGKTEEAESTEVAAGKIISQNLEAGKIAKQGTSVNLVVSKGK", "soluble fraction (log2)": -0.0392}
{"sequence": "HMFKLPRTIGTFEDSDVVIGAGKFGPYIMHNKKFVSLPKSEDPLTIGLERAIELISAKREQEKQRH", "soluble fraction (log2)": 0.237}
{"sequence": "HMFLPFFDNLRKAGVPVSLREFLGFLEGMKAGLATYDIDAFYFLARTTMVKDERNLDKFDRAFSATFKG", "soluble fraction (log2)": -0.935}
{"sequence": "HMFNDGEIAIYTDPRGDAGETQIWKRGKGYYGQNDSFDFEAKDKKELEMKLKRWGYVLIAGSIDE", "soluble fraction (log2)": -0.0774}
{"sequence": "HMFNGDPTTRESILASARAEIDQYGIIGLRLSAVAEKAQVSVPLIYKYFEDRDGLLAVVLGDW", "soluble fraction (log2)": -1.36}
{"sequence": "HMFNTWLGEIRSNTGANVRSGPDASAAIVDARPNETVVRVIGQSGNWLQIGDKQFVAQSLVAP", "soluble fraction (log2)": -0.0317}
{"sequence": "HMFPDLTGDELRIVDLLNTANDLQVNIITAKTNLPISRVTSLLFQLEMKGVVKPLAGGMYHLLG", "soluble fraction (log2)": -0.117}
{"sequence": "HMFPELDEEEQKITKLLQAQNDLPANIIAVKTALNIGTTQAKLFSLEMKGVVKPYAGGFYHLL", "soluble fraction (log2)": 0.0183}
{"sequence": "HMFPNLTNEEQQVMKVLAKTNDLQINMLSVQSNLPIARLTALLFSMEMKGVVKTLAGGVYHLL", "soluble fraction (log2)": 0.375}
{"sequence": "HMFPNSFSEREKEVVDLLLQAKSNKQIAFSLGITNRTVEYHLGNIFAKLGVSSRSEAILTITNYKNQ", "soluble fraction (log2)": -1.27}
{"sequence": "HMFPQVEVQLIYSYKSDRILNKMLKEFNVVILNQVFKDDILTSFHMNYSLVNQLITKIKSYPDISYKIIN", "soluble fraction (log2)": -0.89}
{"sequence": "HMFPTLNEDEQTIVSALQKINDQPINTLSIHTALPIPRLTSLLFQLEIKGVIKQLAGGTYHVL", "soluble fraction (log2)": -0.147}
{"sequence": "HMFQLSNEAKQQVLGELKRYESKQSAVLPALYIGQKDNKGHITPEVIRELSKVMDIPESQINEVFTFYTM", "soluble fraction (log2)": -0.402}
{"sequence": "HMFQRLPFSFANRYKMVLEYQHPERPPVLYYVEPLKAAAILEVSRVIKSGFTPQAIVSDEFEKKLTEAYQR", "soluble fraction (log2)": 0.0565}
{"sequence": "HMFRMTPQRMAILAEVQNAERHLTAAEIYERVRRKYPTIAYGTVYRTLHLLAKHGLIQEFPFGDNASLFDR", "soluble fraction (log2)": -0.0123}
{"sequence": "HMFRPRIEPGAKGSYVLEVQKRLAKLGYEHAGFDGVYGPGTERAIMQLQRDKGLPVTGIVDMRTYEALGLF", "soluble fraction (log2)": "≥ 0.43"}
{"sequence": "HMFRSTLEELKHQISGFLKANQSQEFTAQNLADGLRMTSIAEYKRVVNAMDALVRDGELTFDAGKYQYNPN", "soluble fraction (log2)": 0.252}
{"sequence": "HMFSMKDFGQRLRQLRKERGLTQGDLARLAKIDIMQVSRYERGLGLPSLETAIALARVLETSTDLLFLG", "soluble fraction (log2)": -0.0792}
{"sequence": "HMFSPSDEDLELAHRQIRAFEEVEANGKSIAVVDGRIVESLHIVTARDTLEKAKAITALAEEM", "soluble fraction (log2)": -0.0013}
{"sequence": "HMFSVVDKITLQEELKKLSKKEQLLIQLRYYDELNQEEIAKIFHVSQVQISRMEKKIIEKLKKQF", "soluble fraction (log2)": 0.273}
{"sequence": "HMFTDEELEHIRSALIQAGIRLSKELGLQKMSVEKLTAAVGIAKGSFYMFFGSKEDFILEVAEYTGAQ", "soluble fraction (log2)": -0.679}
{"sequence": "HMFTEEEMTKLRHELILAGIRLSRELGLQRMSVEKITSAVGIAKGSFYIFFDSKEDFILEIADHANRE", "soluble fraction (log2)": -0.828}
{"sequence": "HMFTEEQMDWLRLIKDHIVASLSILPEDLELTPFDRKGGLLGFYDAFGDEYEKILQEMNEELVA", "soluble fraction (log2)": -0.43}
{"sequence": "HMFTEIMAERNALIQAIQQNLPPQHIQSILSKKNKFRLEDLTNEELRDVWQWILNQRQAQQHQQQ", "soluble fraction (log2)": -0.373}
{"sequence": "HMFTGELESRVFELNYVDGLVASAALAGVLTDKGSATPIASRAGGENDMLLVVDRIASYSQIEKIITQLD", "soluble fraction (log2)": -1.31}
{"sequence": "HMFTKSNLEKLSNSELILKAIDSGNYSKIEFGGSEALNPDVPSYKKDLKNREELIEILSEMGM", "soluble fraction (log2)": -0.0908}
{"sequence": "HMFVNADEIAKGLSPFNPSSVAIEAGRLMLKRIGELLSAGVSFSVETTLSTRSYINLIQQAQNQGYSVSL", "soluble fraction (log2)": "≥ 0.43"}
{"sequence": "HMFVVVPDLIGKTINQFEEDLSELNLKYVVSDSGNFNPEFKINAVLDQSPKANSKVKDGRKIYLTLNAS", "soluble fraction (log2)": -0.324}
{"sequence": "HMFWRKIDFYGLNLSTYRNIINIGSDYNYIYLDLGNIYKILNPITGKIIEEQDLVMNIDNINWSS", "soluble fraction (log2)": -0.105}
{"sequence": "HMFYNDLINFDVFRDSRKIGKIENINSRLPQPVFEIMYDSRIVLIPIHEDFIRKIDKVNNIIYLDIPDGLL", "soluble fraction (log2)": -1.69}
{"sequence": "HMGAAFITSSKDNAINIRQSANTDSKVIETVTNGQILESNEKSGEWHKVTYYDNDIKKSFTGYVHEGQLK", "soluble fraction (log2)": -0.129}
{"sequence": "HMGAAIEYGDRGNTVLQAQRLLIARGYMAGSADGIYGRQMEQAVKRFQKEQGLPESGVVDRRTLQVLIRSR", "soluble fraction (log2)": 0.04}
{"sequence": "HMGAARRFEMSEGGSQKFWEVAVEGPALTVRFGKLGTAGTTQTKTLASAEAAAKEADKLVREKTKKGYAP", "soluble fraction (log2)": -0.596}
{"sequence": "HMGAATQADIARVQELLNRLGYDAGSPDGLMGPRTRDAILEYQLTEGLETTGTVTRETLASLEARL", "soluble fraction (log2)": -0.939}
{"sequence": "HMGAGFREAIPPALDGERIDRVVSLLAYVSRNRAAGALAAGSVSVDGEVVFQRSRRVREGEELVVTGFERE", "soluble fraction (log2)": -0.427}
{"sequence": "HMGAITGLQSRVAFLKGQGTITDAEAKTAMAFLPDPTDSKEVKIAKIGQAREYIMSLIENRA", "soluble fraction (log2)": -0.0578}
{"sequence": "HMGAIVTGTVVEIRSDVVIVNAGLKSEGVVPIEQFRNEAGELEVSVGDEVKVALDALEDGFGETRLS", "soluble fraction (log2)": -1.97}
{"sequence": "HMGAIVTVPDLAGRPQPGAEAELRRSGLVPKVRTSYSLTGTRGTVISQTPPAGSRVREGAEVEVVVSRGLN", "soluble fraction (log2)": 0.0493}
{"sequence": "HMGAKLTTAQGGTLKVLVKGKKTHTPTIELRDKDPDFPNAKVVQPDINKGNKQIAHGINGVL", "soluble fraction (log2)": 0.144}
{"sequence": "HMGALAITPDFVGQTREEAERFLRDLDLSFDIGGKGDRILRQEPVAGQRMNLDQPMKLWVGSMNA", "soluble fraction (log2)": -0.313}
{"sequence": "HMGANAVAAFTARVRTGPSTGYPVRISVPQGRQVRVISGPYGGWYRVSYQGLTGYTYGGLLRQG", "soluble fraction (log2)": -0.222}
{"sequence": "HMGAPAISYSKFLEQVDRKNVASVTIYKDGRIDGVMTSGSRFATESPSDPGLVGDLLKAGVEIRAKPP", "soluble fraction (log2)": 0.144}
{"sequence": "HMGAPVIYELTAESAAGQRIDKYLSGQLADLSRSYLQKLLKDGGVEVNKKPVKSNYKLSEGDQIRLEVPEA", "soluble fraction (log2)": -0.198}
{"sequence": "HMGAQINSPISGTILKYLVKNGDKITKDQPLVNIESMKMENTIKSDKEGIVNNINFKIGDSVNTADTLLTL", "soluble fraction (log2)": 0.22}
{"sequence": "HMGAQKITIPDFSNQEATQVYAELKNMGLEYTESRMNHPSIASGYVIKTEPTKGSEVKAGTTVTVYVSLG", "soluble fraction (log2)": -0.128}
{"sequence": "HMGARHPLPYPFARAHGLLLEADGERSTLWASTNVSPAALSEVMRKYAVDVIEEEPPETLSQRIAAAYAA", "soluble fraction (log2)": -0.763}
{"sequence": "HMGASFITSSKDNAINIRESATTDSKVIETIKNGEILESTEKSGDWHKVTYYNSEIKKSFTGYIHNSQLK", "soluble fraction (log2)": -0.151}
{"sequence": "HMGASLVIVPGAGFLRVSASSQTRLDVYSITGMRVRSVDFEPGTTEIELPAGFYIAGGRKFFV", "soluble fraction (log2)": -0.124}
{"sequence": "HMGAYITYEVKPGDTLWDIANKFPGVSADNIKTWNKVDELIKAGERLKINTQTITDYSPDKYPS", "soluble fraction (log2)": -0.575}
{"sequence": "HMGDADDLSRELLQQGLSLKEAVADFERRYLQQAMQRHSSIASVSEALDVHFSTLWRKLVKYNLV", "soluble fraction (log2)": -0.621}
